# Measured values: patent US20190100594A1 (INHIBRX, published 2019)
# Like-named read-outs stand apart in the source and are kept apart here.
# T1: human GITR-CHO (human, UniProt Q9Y5U5)
# T1 construct: expressed on the surface of CHO cells, construct not described; also called human GITR expressed on the surface of CHO cells
# T1 sequence (looked up): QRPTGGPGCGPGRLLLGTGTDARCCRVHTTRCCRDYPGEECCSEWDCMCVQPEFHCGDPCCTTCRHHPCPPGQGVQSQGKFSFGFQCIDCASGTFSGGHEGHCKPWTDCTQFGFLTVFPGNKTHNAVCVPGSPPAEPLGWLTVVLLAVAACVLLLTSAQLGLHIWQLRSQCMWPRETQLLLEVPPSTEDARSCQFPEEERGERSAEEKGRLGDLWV
# T2: GITR expressed on CHO cells (Homo sapiens (Human), UniProt Q9Y5U5 26-241)
# T2 construct: also called glucocorticoid-induced TNFR-related protein; TNFRSF18
# T2 sequence: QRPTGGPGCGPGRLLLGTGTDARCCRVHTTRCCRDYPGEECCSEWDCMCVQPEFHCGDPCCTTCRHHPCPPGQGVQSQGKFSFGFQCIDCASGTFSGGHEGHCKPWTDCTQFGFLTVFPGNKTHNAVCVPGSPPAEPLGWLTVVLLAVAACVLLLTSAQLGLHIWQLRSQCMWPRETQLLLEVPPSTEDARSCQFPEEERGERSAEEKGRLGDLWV
# B1: hzC06v3 (VHH)
# VHH: EVQLLESGGGEVQPGGSLRLSCAASGSVFSIDAMGWYRQAPGKQRELVAVLSGISSAKYAESVKGRFTISRDNAKNTLYLQMSSLRAEDTAVYYCYADVSTGWGRDAHGYWGQGTLVTV
# B2: hzC06v3.2 (VHH)
# VHH: EVQLLESGGGEVQPGGSLRLSCAASGSVFSIDAMGWYRQAPGKQRELVAVLSGISSAKYADSVKGRFTISGDNAKNTLYLQMSSLRAEDTAVYYCYADVSTGWGRDAHGYWGQGTLVTV
# B3: hzC06v3.11 (VHH)
# VHH: EVQLLESGGGEVQPGGSLRLSCAASGSVFSIDAMGWYRQAPGKQRELVAVLSGISSAKYADAVEGRFTISRASAPNTVYLQMSSLRAEDTAVYYCYADVSTGWGRDAHGYWGQGTLVTV
# B4: hzC06v1.1 (VHH)
# VHH: EVQLLESGGGEVQPGGSLRLSCAASGSVFSIDAMGWYRQAPGKGLELVSALSGISSATYAESVKGRFTISRDNAKNTLYLQMSSLRAEDTAVYYCYADVSTGWGRDAHGYWGQGTLVTV
# B5: hzC06v2.4 (VHH)
# VHH: EVQLLESGGGEVQPGGSLRLSCAASGSVFSIDAMGWYRQAPGQQRELVAVLSGISSATYAESVKGRFTISRDNAKNTLYLQMSSLRAEDTAVYYCYADVSTGWGRDAHGYWGQGTLVTV
# B6: hzC06v3.8 (VHH)
# VHH: EVQLLESGGGEVQPGGSLRLSCAASGSVFSIDAMGWYRQAPGKQRELVAVLSGISSAKYAASAPGRFTISRDAVENTVYLQMSSLRAEDTAVYYCYADVSTGWGRDAHGYWGQGTLVTV
# B7: hzC06v3.5 (VHH)
# VHH: EVQLLESGGGEVQPGGSLRLSCAASGSVFSIDAMGWYRQAPGKQRELVAVLSGISSAKYAESVKGRFTISRASAPNTLYLQMSSLRAEDTAVYYCYADVSTGWGRDAHGYWGQGTLVTV
# B8: hzC06v2.2 (VHH)
# VHH: EVQLLESGGGEVQPGGSLRLSCAASGSVFSIDAMGWYRQAPGKGRELVAVLSGISSATYAESVKGRFTISRDNAKNTLYLQMSSLRAEDTAVYYCYADVSTGWGRDAHGYWGQGTLVTV
# B9: hzC06v3.1 (VHH)
# VHH: EVQLLESGGGEVQPGGSLRLSCAASGSVFSIDAMGWYRLAPGQQRELVAVLSGISSAKYAESVKGRFTISRDNAKNTLYLQMSSLRAEDTAVYYCYADVSTGWGRDAHGYWGQGTLVTV
# B10: hzC06v1.2 (VHH)
# VHH: EVQLLESGGGEVQPGGSLRLSCAASGSVFSIDAMGWYRQAPGKGRELVSALSGISSATYAESVKGRFTISRDNAKNTLYLQMSSLRAEDTAVYYCYADVSTGWGRDAHGYWGQGTLVTV
# B11: hzC06v1.3 (VHH)
# VHH: EVQLLESGGGEVQPGGSLRLSCAASGSVFSIDAMGWYRQAPGKQRELVSALSGISSATYAESVKGRFTISRDNAKNTLYLQMSSLRAEDTAVYYCYADVSTGWGRDAHGYWGQGTLVTV
# B12: hzC06v1.4 (VHH)
# VHH: EVQLLESGGGEVQPGGSLRLSCAASGSVFSIDAMGWYRQAPGQQRELVSALSGISSATYAESVKGRFTISRDNAKNTLYLQMSSLRAEDTAVYYCYADVSTGWGRDAHGYWGQGTLVTV
# B13: hzC06v2.3 (VHH)
# VHH: EVQLLESGGGEVQPGGSLRLSCAASGSVFSIDAMGWYRQAPGKQRELVAVLSGISSATYAESVKGRFTISRDNAKNTLYLQMSSLRAEDTAVYYCYADVSTGWGRDAHGYWGQGTLVTV
# B14: hzC06v2.1 (VHH)
# VHH: EVQLLESGGGEVQPGGSLRLSCAASGSVFSIDAMGWYRQAPGKGLELVAVLSGISSATYAESVKGRFTISRDNAKNTLYLQMSSLRAEDTAVYYCYADVSTGWGRDAHGYWGQGTLVTV
# B15: hzCC04v5.5 (VHH)
# VHH: EVQLLESGGGEVQPGGSLRLSCAASGFTFSTHGMDWFRQAPGKDLEWVSAIQSGGSWTSYASSVKGRFTISRDNAKNTLYLQMQQLRAEDTAVYWCQNRVTRGQGTLVTV
# notes: sheet prints hzCC04, text hzC04; also called hzC04v5.5
# B16: hzCC04v5.6 (VHH)
# VHH: EVQLLESGGGEVQPGGSLRLSCAASGFTFSTHGMDWFRQAPGKDLEWVSAIQSGGSWTSYASSVKGRFTISRDNAKNTLYLQMQNLRAEDTAVYWCQNRVTRGQGTLVTV
# notes: sheet prints hzCC04, text hzC04; also called hzC04v5.6
# B17: hzCC04v5.12 (VHH)
# VHH: EVQLLESGGGEVQPGGSLRLSCAASGFTFSTHGMDWFRQAPGKDLEWVSAIQSGGSWTSYASSVKGRFTISRDNAKNTLYLQMSNLRAEDTAVYWCQNRVTRGQGTLVTV
# notes: sheet prints hzCC04, text hzC04; also called hzC04v5.12
# B18: hzCC04v5.11 (VHH)
# VHH: EVQLLESGGGEVQPGGSLRLSCAASGFTFSTHGMDWFRQAPGKDLEWVSAIQSGGSWTSYASSVKGRFTISRDNAKNTLYLQMNQLRAEDTAVYWCQNRVTRGQGTLVTV
# notes: sheet prints hzCC04, text hzC04; also called hzC04v5.11
# B19: hzCC04v5.10 (VHH)
# VHH: EVQLLESGGGEVQPGGSLRLSCAASGFTFSTHGMDWFRQAPGKDLEWVSAIQSGGSWTSYASSVKGRFTISRDNAKNTLYLQMQDLRAEDTAVYWCQNRVTRGQGTLVTV
# notes: sheet prints hzCC04, text hzC04; also called hzC04v5.10
# B20: hzCC04v5.8 (VHH)
# VHH: EVQLLESGGGEVQPGGSLRLSCAASGFTFSTHGMDWFRQAPGKDLEWVSAIQSGGSWTSYASSVKGRFTISRDNAKNTLYLQMNDLRAEDTAVYWCQNRVTRGQGTLVTV
# notes: sheet prints hzCC04, text hzC04; also called hzC04v5.8
# B21: hzCC04v5.7 (VHH)
# VHH: EVQLLESGGGEVQPGGSLRLSCAASGFTFSTHGMDWFRQAPGKDLEWVSAIQSGGSWTSYASSVKGRFTISRDNAKNTLYLQMDNLRAEDTAVYWCQNRVTRGQGTLVTV
# notes: sheet prints hzCC04, text hzC04; also called hzC04v5.7
# B22: hzCC04v5.9 (VHH)
# VHH: EVQLLESGGGEVQPGGSLRLSCAASGFTFSTHGMDWFRQAPGKDLEWVSAIQSGGSWTSYASSVKGRFTISRDNAKNTLYLQMDDLRAEDTAVYWCQNRVTRGQGTLVTV
# notes: sheet prints hzCC04, text hzC04; also called hzC04v5.9
# B23: H11 (VHH, not shown: a dimerising Fc or GST)
# VHH: QVQLVQSGGGLVQPGGSLRLSCAASGSVFSIDSMSWFRQAPGNERELVALITGGRTTTYADSVKGRFTISRASAPNTVHLQMNSLKPEDTAVYYCNAVVSTGWGRNADDYWGQGTQVTVS
# B24: B7 (VHH, not shown: a dimerising Fc or GST)
# VHH: QVQLQESGGGLVQPGGSLRLSCAASGSVFSIDSMSWFRQTPGNERELVAHITGGRTTTYADSVKGRFTISRASAPNTVHLQMNNLKPEDTAVYYCNAAVSTGWGRNADDYWGQGTQVTVS
# B25: C4 (VHH, not shown: a dimerising Fc or GST)
# VHH: QVQLVQSGGGLVQPGESLRLSCAASGSVFSIDSMSWFRQGPGNERELVALITGGRTTTYADSVKGRFTISRANAPNTVHLQMNSLKPEDTAVYYCNAAVSTGWGRSADDYWGQGTQVTVS
# B26: B5 (VHH, not shown: a dimerising Fc or GST)
# VHH: QVQLVQSGGGLVQPGESLRLSCAASGSVFSIDSMSWFRQGPGNERELVALITGGRTTTYADSVKGRFTISRANAPNTVHLQMNSLEPEDTAVYYCNAAVSTGWGRNADDYWGQGTQVTVS
# B27: C7 (VHH, not shown: a dimerising Fc or GST)
# VHH: QVQLQESGGGLVQAGGSLRLSCTASGSIFSIDDMGWYRLAPGKQRELVAVHSGSSTNYGDSVKGRFTISGDSAKNTVYLQMHRLEPEDTAVYYCYAAISSGWGRDAEDYWGQGTQVTVS
# How the values were obtained:
# human GITR-CHO [1] = biological target: T1, human GITR-CHO; test: flow cytometry on human GITR-CHO cells
# human GITR-CHO [2] = biological target: T1, human GITR-CHO; test: flow cytometry on human GITR-CHO cells; remark: listed apart in the source
# human GITR-CHO [3] = biological target: T1, human GITR-CHO; test: flow cytometry on human GITR-CHO cells; remark: listed apart in the source
# cyno GITR-CHO [4] = biological target: T3, cyno GITR-CHO (cynomolgus monkey); test: flow cytometry on cyno GITR-CHO cells
# T3 construct: expressed on the surface of CHO cells, construct not described; also called cynomolgus GITR expressed on the surface of CHO cells
# cyno GITR-CHO [5] = biological target: T3, cyno GITR-CHO; test: flow cytometry on cyno GITR-CHO cells; remark: listed apart in the source
# human GITR-CHO [6] = biological target: T1, human GITR-CHO; test: flow cytometry on human GITR-CHO cells; remark: listed apart in the source
# [7] = biological target: T2, GITR expressed on CHO cells; test: flow cytometry competition on GITR-expressing CHO cells; blocked ligand recombinant GITRL; readout GITRL bound, MFI-FL1
# From the text: Briefly, in these studies, a flow cytometry assay using GITR expressing CHO cells and recombinant GITRL was used to implement to assess blocking capacity. The GITR antibody, TRX-518, was used as a control for these studies.
# [8] = biological target: T2, GITR expressed on CHO cells; test: flow cytometry on GITR-expressing CHO cells, MFI-FL4
binder,measurement,setting,value
B1,EC50 (read off the curve),human GITR-CHO [1],1 to 2 nM
B2,EC50 (read off the curve),human GITR-CHO [2],~4 nM
B3,EC50 (read off the curve),human GITR-CHO [3],1 to 2 nM
B4,EC50 (read off the curve),cyno GITR-CHO [4],~8 nM
same,EC50 (read off the curve),human GITR-CHO [1],1 to 2 nM
B5,EC50 (read off the curve),cyno GITR-CHO [4],~4 nM
same,EC50 (read off the curve),human GITR-CHO [1],1 to 2 nM
B6,EC50 (read off the curve),human GITR-CHO [3],1 to 2 nM
B7,EC50 (read off the curve),human GITR-CHO [2],~4 nM
B8,EC50 (read off the curve),cyno GITR-CHO [4],~4 nM
same,EC50 (read off the curve),human GITR-CHO [1],1 to 2 nM
B9,EC50 (read off the curve),human GITR-CHO [2],~4 nM
B10,EC50 (read off the curve),cyno GITR-CHO [4],~4 nM
same,EC50 (read off the curve),human GITR-CHO [1],1 to 2 nM
B11,EC50 (read off the curve),cyno GITR-CHO [4],~4 nM
same,EC50 (read off the curve),human GITR-CHO [1],1 to 2 nM
B12,EC50 (read off the curve),cyno GITR-CHO [4],~4 nM
same,EC50 (read off the curve),human GITR-CHO [1],1 to 2 nM
B13,EC50 (read off the curve),cyno GITR-CHO [4],~4 nM
same,EC50 (read off the curve),human GITR-CHO [1],1 to 2 nM
B14,EC50 (read off the curve),human GITR-CHO [1],1 to 2 nM
B15,EC50 (read off the curve),cyno GITR-CHO [5],1 to 2 nM
same,EC50 (read off the curve),human GITR-CHO [6],~2 nM
B16,EC50 (read off the curve),cyno GITR-CHO [5],1 to 2 nM
same,EC50 (read off the curve),human GITR-CHO [6],~2 nM
B17,EC50 (read off the curve),cyno GITR-CHO [5],1 to 2 nM
same,EC50 (read off the curve),human GITR-CHO [6],~2 nM
B18,EC50 (read off the curve),cyno GITR-CHO [5],1 to 2 nM
same,EC50 (read off the curve),human GITR-CHO [6],~2 nM
B19,EC50 (read off the curve),cyno GITR-CHO [5],1 to 2 nM
same,EC50 (read off the curve),human GITR-CHO [6],~2 nM
B20,EC50 (read off the curve),cyno GITR-CHO [5],1 to 2 nM
same,EC50 (read off the curve),human GITR-CHO [6],~2 nM
B21,EC50 (read off the curve),cyno GITR-CHO [5],1 to 2 nM
same,EC50 (read off the curve),human GITR-CHO [6],~2 nM
B22,EC50 (read off the curve),cyno GITR-CHO [5],1 to 2 nM
same,EC50 (read off the curve),human GITR-CHO [6],~2 nM
B23,IC50 (read off the curve),[7],2 to 3 nM
same,EC50 (read off the curve),[8],2 to 3 nM
B24,IC50 (read off the curve),[7],~3 nM
same,EC50 (read off the curve),[8],~3 nM
B25,IC50 (read off the curve),[7],2 to 3 nM
same,EC50 (read off the curve),[8],2 to 3 nM
B26,IC50 (read off the curve),[7],2 to 3 nM
same,EC50 (read off the curve),[8],2 to 3 nM
B27,IC50 (read off the curve),[7],2 to 3 nM
same,EC50 (read off the curve),[8],~2 nM
